The Kd is the equilibrium constant for the complex coming apart. Lower therefore signals tighter binding. What is called koff is the first-order rate constant of dissociation. Low values mean a long-lived complex, high ones a short-lived complex. Broadly, the kon is the second-order rate constant of association. Usually EC50 (read off the curve) stands for the concentration giving half of the maximal effect.

The target of assay [1] is T1, BCMA (BCMW37.DB.001) (UniProt Q02223 1-54, limits assumed).
T1 construct: The SPR antigen itself is named only by its batch label
T1 sequence (looked up): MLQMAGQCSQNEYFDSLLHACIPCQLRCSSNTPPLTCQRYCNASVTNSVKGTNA
Kind of assay: SPR, BCMA antigen BCMW37.DB.001. (In general: SPR reads the build-up and loss of mass on a sensor chip optically.)

Assay [2] has as its target CD3W220.001. Kind of assay: SPR, CD3 antigen CD3W220.001.
In assay [3] the target is T2, BCMA on H929-Fluc-GFP cells (UniProt Q02223 1-184).
T2 sequence (looked up): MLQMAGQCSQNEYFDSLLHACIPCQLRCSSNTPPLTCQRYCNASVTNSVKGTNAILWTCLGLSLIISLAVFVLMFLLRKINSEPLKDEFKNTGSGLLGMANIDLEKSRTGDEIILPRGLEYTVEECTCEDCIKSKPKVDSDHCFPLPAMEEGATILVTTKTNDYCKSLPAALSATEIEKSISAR
Kind of assay: cell-based or functional assay.

For assay [4], the target named is CD3 on human donor Pan T cells (human). Kind of assay: cell-based or functional assay.
Sequence of CD3 on human donor Pan T cells (human) (chain, as listed by the source): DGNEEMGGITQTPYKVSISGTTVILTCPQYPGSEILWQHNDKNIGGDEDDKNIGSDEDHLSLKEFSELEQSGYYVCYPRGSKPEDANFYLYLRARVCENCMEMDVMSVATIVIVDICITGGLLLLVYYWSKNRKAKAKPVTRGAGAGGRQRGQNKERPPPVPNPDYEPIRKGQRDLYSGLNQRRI
Assay [5] deals with T3, Human CD3E-CD3D Heterodimer Protein (Acro Biosystems) (human, UniProt P07766 23-126; P04234 22-105).
T3 construct: also called recombinant CD3 antigen (human CD3 epsilon and CD3 delta heterodimer protein, Acro Biosystems); Recombinant CD3E/D heterodimer protein
T3 sequence (P07766 23-126 limits assumed, chain 1 of 2): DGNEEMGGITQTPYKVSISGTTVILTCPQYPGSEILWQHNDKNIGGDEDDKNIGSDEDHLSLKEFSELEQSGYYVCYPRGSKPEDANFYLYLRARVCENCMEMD
T3 sequence (P04234 22-105 limits assumed, chain 2 of 2): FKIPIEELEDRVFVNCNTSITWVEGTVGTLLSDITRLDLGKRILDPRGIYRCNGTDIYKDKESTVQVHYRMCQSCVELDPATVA
The assay is described as follows: BLI (Octet), bispecific on anti-human Fc sensor, CD3 in solution, 2:1 heterogeneous ligand model, kdis2. A general note: Biolayer interferometry detects binding as a change in optical thickness at a sensor tip.
Experimental: (§1) To evaluate CD3 binding, anti-human IgG Fc (AHC) capture biosensors (Sartorius) were loaded with 3 ug/mL bispecific sample of interest in PBS. After loading sensor tips were washed in 1×DPBS+0.02% Tween 20+1 mg/mL Bovine Serum Albumin (BSA) for blocking. […] Association was monitored for 1800 s and dissociation for 900 s, respectively. All measurements were performed at 30° C. with agitation at 1,200 rpm. Sensorgrams were referenced for buffer effects and then analyzed using the FORTEBIO Data Analysis HT Software (V. 12.0.1.55). Kinetic responses were baseline subtracted, aligned and globally fit using a 1:1 fitting model or 2:1 heterogeneous ligand binding model to obtain values for association (Kon), dissociation (Koff) rate constants and the equilibrium dissociation constants (KD).
(§2) Recombinant CD3E/D heterodimer protein was used to assess binding of the scFv/spFv anti-CD3 arms.

Assay [6] addresses T3, Human CD3E-CD3D Heterodimer Protein …. The assay is described as follows: BLI (Octet), bispecific on anti-human Fc sensor, CD3 in solution, 2:1 heterogeneous ligand model, KD2.
Experimental: as §1, §2
Assay [7] has the same target. Kind of assay: BLI (Octet), bispecific on anti-human Fc sensor, CD3 in solution, 2:1 heterogeneous ligand model, ka.
Experimental: as §1, §2
For assay [8] the target is unchanged. Kind of assay: BLI (Octet), bispecific on anti-human Fc sensor, CD3 in solution, 2:1 heterogeneous ligand model, kdis.
Experimental: as §1, §2
Assay [9] deals with T4, biotinylated-BCMA protein (UniProt Q02223 1-54, limits assumed, biotinylated (site not stated)).
T4 construct: also called recombinant BCMA antigen; recombinant biotinylated BCMA
T4 sequence (looked up): T1 sequence (looked up)
The assay is described as follows: ELISA, chemiluminescence: biotinylated recombinant BCMA on streptavidin plates, detection with goat anti-human IgG F(ab')2 HRP. On the technique in general: In an ELISA, binding on a coated surface is turned into a signal by an enzyme label.

For assay [10], the target named is T3, Human CD3E-CD3D Heterodimer Protein …. Kind of assay: BLI (Octet), bispecific on anti-human Fc sensor, CD3 in solution, 2:1 heterogeneous ligand model, ka2.
Experimental: as §1, §2
Assay [11] shares this target. Kind of assay: BLI (Octet), bispecific on anti-human Fc sensor, CD3 in solution, 2:1 heterogeneous ligand model, KD1.
Experimental: as §1, §2
The target of assay [12] is T4, biotinylated-BCMA protein. The assay is described as follows: BLI (Octet), biotinylated BCMA on streptavidin sensor, bispecific in solution, 1:1 model.
Experimental: Binding of the Cris7b scFv and stapled spFv bispecific molecules to recombinant CD3 antigen (human CD3 epsilon and CD3 delta heterodimer protein, Acro Biosystems) and recombinant BCMA antigen were measured by biolayer interferometry (BLI) using an OCTET HTX instrument (Sartorius, formerly ForteBio). To evaluate BCMA binding, Streptavidin (SA) capture sensors (Sartorius) were loaded with biotinylated-BCMA protein to ˜1 nm signal in PBS. […] Association and dissociation times were 900 s, respectively. […] All measurements were performed at 30° C. with agitation at 1,200 rpm. Sensorgrams were referenced for buffer effects and then analyzed using the ForteBio Data Analysis HT Software (V. 12.0.1.55). Kinetic responses were baseline subtracted, aligned and globally fit using a 1:1 fitting model or 2:1 heterogeneous ligand binding model to obtain values for association (Kon), dissociation (Koff) rate constants and the equilibrium dissociation constants (KD).

B1: BCMB1051 (bispecific antibody, human IgG1, kappa, L234A L235A)
light: DIVMTQSQKFMSTTVGDRVSITCKASQNVGTAVAWYQQKPGQSPKLLIYSASNRYTGVPDRFTGTGSGTDFTLTIINVQSEDLADYFCQQYGSSPWTFGGGTKLEIKRTVAAPSVFIFPPSDEQLKSGTASVVCLLNNFYPREAKVQWKVDNALQSGNSQESVTEQDSKDSTYSLSSTLTLSKADYEKHKVYACEVTHQGLSSPVTKSFNRGEC
heavy: QVQLQQSGAELVKPGASVKLSCKASGYTFTNNVMHWVRQKPGQGLEWIGYILPYNDGTKYNEKFKGKATLTSDKSSSTAYMELSSLTSEDSAVYYCARYDYDGYFDYWGQGTTLTVSSASTKGPSVFPLAPSSKSTSGGTAALGCLVKDYFPEPVTVSWNSGALTSGVHTFPAVLQSSGLYSLSSVVTVPSSSLGTQTYICNVNHKPSNTKVDKKVEPKSCDKTHTCPPCPAPEAAGGPSVFLFPPKPKDTLMISRTPEVTCVVVSVSHEDPEVKFNWYVDGVEVHNAKTKPREEQYNSTYRVVSVLTVLHQDWLNGKEYKCKVSNKALPAPIEKTISKAKGQPREPQVYTLPPSREEMTKNQVSLSCAVKGFYPSDIAVEWESNGQPENNYKTTPPVLDSDGSFFLVSKLTVDKSRWQQGNVFSCSVMHEALHNRFTQKSLSLSPGK
chain: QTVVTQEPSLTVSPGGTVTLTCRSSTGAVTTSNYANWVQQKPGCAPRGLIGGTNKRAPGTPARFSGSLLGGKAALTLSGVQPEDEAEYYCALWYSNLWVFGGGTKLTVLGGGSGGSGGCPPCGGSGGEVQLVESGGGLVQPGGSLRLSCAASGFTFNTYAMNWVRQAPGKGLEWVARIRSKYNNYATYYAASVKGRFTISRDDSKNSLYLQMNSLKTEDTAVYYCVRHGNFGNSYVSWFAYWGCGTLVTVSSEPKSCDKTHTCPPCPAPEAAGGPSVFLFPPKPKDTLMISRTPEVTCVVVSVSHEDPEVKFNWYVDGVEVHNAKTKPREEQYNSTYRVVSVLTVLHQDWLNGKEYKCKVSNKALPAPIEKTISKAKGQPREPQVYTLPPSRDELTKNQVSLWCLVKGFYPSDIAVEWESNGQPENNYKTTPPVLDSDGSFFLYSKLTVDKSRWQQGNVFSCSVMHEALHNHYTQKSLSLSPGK
notes: Murine anti-BCMA Fab × stapled anti-CD3 (CD3B219) scFv-Fc, knob-in-hole Fc; also called BCMB1051.001; BCMB749 × CD3B219 spfv
In the case of B1, in [1], the Kd was 2.47 nM, the koff stood at 0.0413 s⁻¹ and the on-rate constant (kon) was 1.67e+07 M⁻¹ s⁻¹. In [2], this molecule registered a Kd of 21.5 nM, a koff of 0.00171 s⁻¹ and a kon of 79500 M⁻¹ s⁻¹. Also, in assay [3], the “Bottom of fit, % Cytolysis” value was 16.7%; the “EC50 (nM), % Cytolysis” value was determined as 0.0594 nM; the “Top of fit (Cmax), % Cytolysis” value was determined as 92.4%. For the same molecule, in assay [4], the “Bottom of fit, CD4/CD25+ T cell activation” value was 8.67; the “Bottom of fit, CD8/CD25+ T cell activation” value was 1.67; the “EC50 (nM), CD4/CD25+ T cell activation” value amounted to 0.087 nM; the “EC50 (nM), CD8/CD25+ T cell activation” value is 0.144 nM. For the same molecule, in [4], the “Top of fit (Cmax), CD4/CD25+ T cell activation” value was 84.9 and the “Top of fit (Cmax), CD8/CD25+ T cell activation” value is 74.

B2: BCMB1056 (bispecific antibody, human IgG1, kappa, L234A L235A)
light: B1 light
heavy: B1 heavy
chain: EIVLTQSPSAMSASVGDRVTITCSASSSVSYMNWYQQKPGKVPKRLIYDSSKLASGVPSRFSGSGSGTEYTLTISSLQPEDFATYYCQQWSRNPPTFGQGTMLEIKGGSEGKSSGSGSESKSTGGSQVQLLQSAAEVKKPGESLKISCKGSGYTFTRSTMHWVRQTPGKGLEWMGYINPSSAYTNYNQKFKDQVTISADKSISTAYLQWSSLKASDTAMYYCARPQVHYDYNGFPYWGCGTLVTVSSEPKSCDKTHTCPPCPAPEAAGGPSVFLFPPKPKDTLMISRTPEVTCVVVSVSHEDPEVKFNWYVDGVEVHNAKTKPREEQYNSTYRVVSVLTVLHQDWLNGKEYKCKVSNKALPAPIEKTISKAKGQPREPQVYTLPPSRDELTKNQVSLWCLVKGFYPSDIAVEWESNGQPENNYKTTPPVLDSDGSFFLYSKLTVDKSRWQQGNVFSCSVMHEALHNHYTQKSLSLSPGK
notes: Murine anti-BCMA Fab × anti-CD3 scFv-Fc, knob-in-hole Fc; also called BCMB1056.001; BCMB749 × Cris7b scFv
For the molecule B2, in assay [1], the Kd amounted to 2.61 nM, the off-rate (koff) is 0.0389 s⁻¹ and the kon amounted to 1.49e+07 M⁻¹ s⁻¹. Besides, in [2], the affinity, expressed as Kd, was 951 nM; the koff was 0.237 s⁻¹; the kon stood at 249000 M⁻¹ s⁻¹. Moreover, in assay [3], the “Bottom of fit, % Cytolysis” value came to 17.2%; the “EC50 (nM), % Cytolysis” value worked out at 0.0758 nM; the “Top of fit (Cmax), % Cytolysis” value was 92.7%. Besides, in [4], the “Bottom of fit, CD4/CD25+ T cell activation” value was 8.29; the “Bottom of fit, CD8/CD25+ T cell activation” value came to 1.42; the “EC50 (nM), CD4/CD25+ T cell activation” value is 0.105 nM; the “EC50 (nM), CD8/CD25+ T cell activation” value was found to be 0.15 nM. Moreover, in [4], the “Top of fit (Cmax), CD4/CD25+ T cell activation” value was 82.7 and the “Top of fit (Cmax), CD8/CD25+ T cell activation” value came to 75.3.

B3: TD01B48 (bispecific antibody)
light: B1 light
heavy: B1 heavy
scFv-Fc: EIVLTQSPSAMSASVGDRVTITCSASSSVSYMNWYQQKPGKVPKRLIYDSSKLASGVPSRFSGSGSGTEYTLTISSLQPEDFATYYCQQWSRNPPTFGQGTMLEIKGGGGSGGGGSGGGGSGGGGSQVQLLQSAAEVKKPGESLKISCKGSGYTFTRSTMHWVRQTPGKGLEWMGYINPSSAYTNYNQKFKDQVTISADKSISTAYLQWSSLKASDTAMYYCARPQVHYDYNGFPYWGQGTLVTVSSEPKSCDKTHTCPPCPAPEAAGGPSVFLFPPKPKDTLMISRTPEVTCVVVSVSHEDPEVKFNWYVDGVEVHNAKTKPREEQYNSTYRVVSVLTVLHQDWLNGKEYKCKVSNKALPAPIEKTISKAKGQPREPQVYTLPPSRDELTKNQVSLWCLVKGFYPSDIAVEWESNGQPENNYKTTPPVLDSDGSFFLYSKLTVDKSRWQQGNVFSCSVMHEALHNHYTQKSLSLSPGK
notes: also called BCMB749 × Cris7b scFv G4S; Cris7 scFv B48 G4S
In the case of B3, the results for the koff in assay [5] and in assay [8] were 7.45e-05 s⁻¹ and 3.49e-05 s⁻¹, respectively. The dissociation constant Kd in [6] was 4.62 nM; in assay [11] it was 0.238 nM. Moreover, the results for the kon in [7] and in [10] were 147000 M⁻¹ s⁻¹ and 16100 M⁻¹ s⁻¹, respectively. For the same molecule, the “EC50 (read off the curve)” value in assay [9] was ~2 nM.

B4: TD01B46 (bispecific antibody, human IgG1, kappa, L234A L235A)
light: B1 light
heavy: B1 heavy
chain: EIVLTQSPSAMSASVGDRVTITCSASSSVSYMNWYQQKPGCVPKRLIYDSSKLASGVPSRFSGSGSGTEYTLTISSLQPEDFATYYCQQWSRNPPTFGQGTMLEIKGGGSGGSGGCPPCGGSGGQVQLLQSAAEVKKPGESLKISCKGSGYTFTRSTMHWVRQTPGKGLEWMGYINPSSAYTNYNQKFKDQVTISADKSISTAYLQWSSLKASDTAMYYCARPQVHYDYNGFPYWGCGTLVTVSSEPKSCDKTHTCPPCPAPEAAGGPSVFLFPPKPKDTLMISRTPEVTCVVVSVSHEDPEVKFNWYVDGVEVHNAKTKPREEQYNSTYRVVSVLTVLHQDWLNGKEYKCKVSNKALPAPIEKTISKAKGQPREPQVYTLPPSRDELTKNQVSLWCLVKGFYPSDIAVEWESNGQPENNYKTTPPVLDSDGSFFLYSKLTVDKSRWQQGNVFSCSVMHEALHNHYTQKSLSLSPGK
notes: Stapled bispecific from the large-scale batch; also called BCMB749 × Cris7b spFv
Turning to B4, the koff is 4.65e-05 s⁻¹ in assay [5], 3.49e-06 s⁻¹ in assay [8] and 0.00142 s⁻¹ in assay [12]. Further, the results for the equilibrium dissociation constant (Kd) in assay [6], in assay [12] and in [11] were 2.99 nM, 5.43 nM and 0.0222 nM, respectively. In addition, the kon stood at 158000 M⁻¹ s⁻¹ in assay [7], 15600 M⁻¹ s⁻¹ in assay [10] and 261000 M⁻¹ s⁻¹ in assay [12]. Also, in [9], the “EC50 (read off the curve)” value was ~2 nM.

B5: TD01B49 (bispecific antibody, human IgG1, kappa, L234A L235A)
light: B1 light
heavy: B1 heavy
chain: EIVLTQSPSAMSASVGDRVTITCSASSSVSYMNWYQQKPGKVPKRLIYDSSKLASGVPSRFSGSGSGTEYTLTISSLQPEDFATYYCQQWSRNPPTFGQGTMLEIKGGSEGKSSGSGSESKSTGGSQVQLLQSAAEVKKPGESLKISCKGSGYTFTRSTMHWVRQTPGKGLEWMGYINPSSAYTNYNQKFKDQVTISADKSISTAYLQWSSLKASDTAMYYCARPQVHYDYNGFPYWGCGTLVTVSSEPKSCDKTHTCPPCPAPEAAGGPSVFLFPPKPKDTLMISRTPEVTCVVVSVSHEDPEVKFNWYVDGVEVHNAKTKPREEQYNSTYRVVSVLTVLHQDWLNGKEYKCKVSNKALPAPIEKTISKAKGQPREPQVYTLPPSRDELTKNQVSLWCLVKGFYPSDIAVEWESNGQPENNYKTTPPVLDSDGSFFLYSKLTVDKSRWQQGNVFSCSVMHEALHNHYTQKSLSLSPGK
notes: also called BCMB749 × Cris7b scFv Bird
Take B5: the values for the koff in assay [5], in assay [8] and in [12] were 5.61e-05 s⁻¹, 2.04e-05 s⁻¹ and 0.00145 s⁻¹, respectively. The values for the Kd in [6], in assay [12] and in assay [11] were 3.42 nM, 4.02 nM and 0.127 nM, respectively. For the same molecule, the kon worked out at 160000 M⁻¹ s⁻¹ in assay [7], 16400 M⁻¹ s⁻¹ in [10] and 362000 M⁻¹ s⁻¹ in assay [12]. Besides, the “EC50 (read off the curve)” value in [9] is ~2 nM.

The record behind these values is patent US20250320304A1 (Janssen / Centocor, published 2025).
